Common to all, as to assay: spectrophotometric quinone formation, Michaelis-Menten fit
Common to all, as to format: biochemical, Taraxacum officinale

One series relates to T1, PPO-1.
T1 construct: mature protein without transit peptide, N-terminal Strep2 tag with enterokinase site spacer; E. coli Rosetta2 (DE3)
The following applies: 50 mM acetate-phosphate, optimal pH (5.5), 25 °C, optimal SDS concentration as activator, O2 co-substrate. The text has this:
spectrophotometric quinone formation, Michaelis-Menten fit on PPO-1

Substrate in series [1]: NCCc1ccc(O)c(O)c1
The following applies: 50 mM acetate-phosphate, optimal pH (6.0), 25 °C, optimal SDS concentration as activator, O2 co-substrate. From the text: spectrophotometric quinone formation, Michaelis-Menten fit on PPO-2

Substrate in series [2]: NCCc1ccc(O)c(O)c1
The following applies: 50 mM acetate-phosphate, optimal pH (5.0), 25 °C, optimal SDS concentration as activator, O2 co-substrate. The text has this:
spectrophotometric quinone formation, Michaelis-Menten fit on PPO-7

Substrate in series [3]: NCCc1ccc(O)c(O)c1
Particulars: 50 mM acetate-phosphate, optimal pH (5.0), 25 °C, optimal SDS concentration as activator, O2 co-substrate. The text has this:
spectrophotometric quinone formation, Michaelis-Menten fit on PPO-6
This is another data set of the same source.

Here are results for eight molecules from paper PMC4053514, “Structural Diversity in the Dandelion (Taraxacum officinale) Polyphenol Oxidase Family Results in Different Responses to Model Substrates” (PLoS ONE, 2014).

Read-outs that look alike come from different tables or passages of the source.

On to `N[C@@H](Cc1ccc(O)c(O)c1)C(=O)O` [dihydroxyphenylalanine, (S)-2-amino-3-(3,4-dihydroxyphenyl)propanoic acid], for which the Km with PPO-1 (read-out: substrate / L-Dopa) was 8070 ± 2140 µM.

For the molecule `Oc1ccccc1O` [catechol, benzene-1,2-diol], the Km in the series with PPO-1 (read-out: substrate / CAT) came out at 1190 ± 510 µM. With `O=C(O)Cc1ccc(O)c(O)c1` [dihydroxyphenylacetic acid, 2-(3,4-dihydroxyphenyl)acetic acid], the Km in the series on PPO-1 (read-out: substrate / Dopac) is 4950 ± 1670 µM. With `NCCc1ccc(O)c(O)c1` [dopamine, 4-(2-aminoethyl)benzene-1,2-diol], the Km in the series with PPO-1 (read-out: substrate / DA) is 780 ± 140 µM. As to `Cc1ccc(O)c(O)c1` [4-methylcatechol, 4-methylbenzene-1,2-diol], the Km in the series with PPO-1 (read-out: substrate / 4MC) was determined as 1060 ± 180 µM.

B1: PPO-2 (Taraxacum officinale) (protein)
chain: DPIMAPDLTKCGPADLPQGAVATNCCPPFTKNIIDFKLPPPSTNLRVRPAAHLANKDYIAKFNKAIELMKALPDDDPRSFKQQAAVHCAYCDGAYDQVGFPDLDLQVHNSWLFLPFHRHYLYFFEKICGKLINDPNFAIPFWNWDTPDGMTIPAIYANKNSQLYDALRDGKHQPPSLVDLDFNGEDENLSKSKQTSTNLTIMYRQMVSSSKTASLFMGSPYRAGDEANPGGGSLESIPHGPVHIWTGDRNQPNGEDMGNFYSAARDPIFYAHHANIDRMWSVWKTLGGRRNDFTDKDWLDSAFLFYDENAELVRVKVRDALDSKKLGYVYQDVGIPWLETKPEPRLKRALSKIKKKLAVARADEHIPFAKDVFPATLDKVIKVLVPRPKKSRSKKQKDAEEEILVIEGIEVKRDEFVKFDVFVNDEDDGMRATADKTEFAGSFVNVPHKHKHGKSVKTRLRLGISELLDDLGADDDDNVLVTLVPKNKGDEVSIKGMKIEYED
notes: mature protein without transit peptide, N-terminal Strep2 tag with enterokinase site spacer; E. coli Rosetta2 (DE3)
For the molecule B1, in series [1], the Km turned out to be 940 ± 310 µM and the kcat was determined as 59.5 ± 13.7 s⁻¹.

B2: PPO-7 (Taraxacum officinale) (protein)
chain: APITTPDISTCIPSESGFNTEDSVRSNQCCPPATSSTIPKEFVFPKDTTTRIRPAAHRATPEYVAKYKAAIQAMRDLPDDHPHSFVSQAKIHCAYCNGGYTQVASGFPDKMLQVHNSWLFFPFHRWYLYFYERILGKLIDDPTFALPYWNWDHPAGMTLPAFFETDGKRNPVFDAYRNVTHVTPAAIVDLDYNGSDSGAPCLQQINTNLTAMYKQMVSNAADPLSFFGGVYKAGDDPFGNGDPSVGSVEAGCHTAVHRWVGNPRMMNTEDMGNFYSAGYDPAFYVHHANVDRMWKVWKDLGIPGHSEPTDPDWLNASFVFYDENEQLVRVYNKDCVNLENLKYDYELSPLPWLKNRPVPHTPKPVDNAAKPAIKLPEVKFPVKLDKTVKVYVKRPVKKRGKAEKDKVSEQLVLKGIKFNSTKFVKVDVFVNDQDDAPAILPSESEFVGSFAQLPHGRSGRGRGRGHGHSELMTSAARFGLTELLEDIGAEDDEYILVTLVPKAGSEDVTVEEITVELVPVNP
notes: mature protein without transit peptide, N-terminal Strep2 tag with enterokinase site spacer; E. coli Rosetta2 (DE3); tetramer
As for B2, in series [2], the Km is 4490 ± 2260 µM and the kcat came to 22.6 ± 2.5 s⁻¹.

B3: PPO-6 (Taraxacum officinale) (protein)
chain: DPITTPDISTCVASTKGFQPKNAVRTNACCPPTLSKTVKEFVFPNDRATRIRPAAHRASPEYIAKYKAAIQKMRDLEDDDPHSFVSQAKIHCAYCNGGFTQDKHPDKELQIHNSWLFFPFHRWYLYFYERILGKLIDDPTFAIPYWNWDNPAGMSLPDFFEEGGKANPAFDAYRNSSHLAPAIADLDYDGTEKNYTCIKQLSVNLGAMNKQMIRNAGDWKSFFGGEYRAGSDPIGNKDPSVGSVEAGCHTAIHRWVGNSRLPNGEDMGNFYSAGYDPVFYVHHANVDRMWKVWKDLGIRGHIEPPDNDWRNASYVFYDENKELVRVYNKDCVRLEKLKYDYQFAPIPWKNSRPVARTKKSNIALKSVGTVKQAQDSKFPLKLDKTTKVLVKRPATNRSKEDKENANEVLLIKGVVFNGEKFVKFDVFVNDKDDVTASTAEESEFAGSFAQLPHNHGDKMLMTSSARFGLTELLEDIDAEDDESILVTLVPKVGCEEVTIGEIKVELVPIEE
notes: mature protein without transit peptide, N-terminal Strep2 tag with enterokinase site spacer; E. coli Rosetta2 (DE3); disulfide-linked tetramer
With B3, in series [3], the Km came to 5620 ± 1140 µM and the kcat was 61.7 ± 10.6 s⁻¹.
